According to US20050221433A1:
Changes are numbered by the printed parent chain. In names and notes the source's numbering stands. One block for each binder: values may come before it.

Target: recombinant human IL-18 (human) (UniProt Q14116)
Assay: cell-based or functional assay

recombinant human IL-18 (human), sequence (Q14116 37-193 limits assumed): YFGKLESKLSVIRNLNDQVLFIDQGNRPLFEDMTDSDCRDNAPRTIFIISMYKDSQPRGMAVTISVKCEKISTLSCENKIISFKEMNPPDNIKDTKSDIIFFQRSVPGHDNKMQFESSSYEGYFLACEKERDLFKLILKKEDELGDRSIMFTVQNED

IC50 (M), HEK293/NFkB-luciferase bioassay: 1.67e-10 M
B1: mIL18BPd (C45S).mFc (Fc fusion, not shown: a dimerising Fc or GST)
chain: TSAPQTTATVLTGSSKDPSSSWSPAVPTKQYPALDVIWPEKEVPLNGTLTLSCTACSRFPYFSILYWLGNGSFIEHLPGRLKEGHTSREHRNTSTWLHRALVLEELSPTLRSTNFSCLFVDPGQVAQYHIILAQLWDGLKTAPPPSQETLSSHSPVSRSAGPGVA

IC50 (M), HEK293/NFkB-luciferase bioassay: 9.6e-11 M
B2: mIL18BPd.mFc (Fc fusion, not shown: a dimerising Fc or GST)
chain: B1 chain with S19C
